According to paper PMC4813732:

Columns and labels:
[1] = biological target: Human thrombin (human)
[2] = biological target: Human thrombin (human); remark: listed apart in the source

Substance	heparin cofactor activity (residual thrombin activity at the end of thrombin inactivation in the presence of heparin; phAT as standard) [1] [IU/mg]	second-order rate constant of thrombin inhibition, with heparin (residual thrombin activity on S-2238, 25°C, pH 7.4) [2]	second-order rate constant of thrombin inhibition, without heparin (residual thrombin activity on S-2238, 25°C, pH 7.4) [2]
latent form of recombinant human antithrombin (from UniProt P01008 33-464) (natural protein)	0.35	–	–
α-form of recombinant human antithrombin bearing high-mannose-type N-linked oligosaccharides (from UniProt P01008 33-464) (natural protein)	5.83	1.9e+07 /M/s	6600 /M/s
α-form of recombinant human antithrombin bearing sialylated biantennary complex-type N-linked oligosaccharides lacking a core fucose (from UniProt P01008 33-464) (natural protein)	5.49	1.9e+07 /M/s	–
β-form of recombinant human antithrombin bearing high-mannose-type N-linked oligosaccharides (from UniProt P01008 33-464) (natural protein)	5.8	1.9e+07 /M/s	6100 /M/s
β-form of recombinant human antithrombin bearing sialylated biantennary complex-type N-linked oligosaccharides lacking a core fucose (from UniProt P01008 33-464) (natural protein)	5.66	2e+07 /M/s	7300 /M/s
